Changes are numbered by the printed parent chain. In names and notes the source's numbering stands. Entries after “also recorded” stand apart in the source; their conditions may differ.
How the values were obtained:
[1] = Luminescence activities of MpLuc1 and its variants; assay type: cell-based; settings: for luminescence stability compared with MpLuc1: microplate reader
Procedure: These variants were individually introduced in equal amounts into living cells, and their relative luminescence intensities were measured.

[2] = Luminescence activities of MLuc and its variants; assay type: cell-based; settings: for luminescence stability of MLuc variants: measured every 0.5 seconds
Procedure: These variants were individually introduced in equal amounts into living cells, and their relative luminescence spectra were measured. […] In order to examine the luminescence stability of the variants produced in the present invention, temporal changes in the luminescence intensity after the introduction of the substrate were measured every 0.5 seconds (FIG. 15B). […] Further, in order to examine the long-wavelength luminescence intensities of the variants, the luminescence intensities of the variants were measured using a 610 nm long-pass filter. […] Results similar to the above tendency were obtained from the measurement of the luminescence intensities before and after the introduction of the substrate (FIG. 15D).

[3] = Area of luminescence spectrum of GLuc variants (20-minute lysis, luminescence plate reader); assay type: biochemical; settings: for bioluminescence intensity higher than GLuc (area ratio): plate reader; for bioluminescence intensity (area of spectrum), in words: versus original GLuc
Procedure: In this case, a protocol for immersing the lysate samples in lysis solution for 20 minutes was employed (uniformed cell lysates even whose organelles are lysed). The area of the luminescence spectrum measured by a luminescence plate reader was used as the index of the luminescence intensity.

BALE/c nude mice = assay: In vivo imaging of transplanted COS-7 cells expressing GLuc or 8990; settings: subcutaneous COS-7 cells, coelenterazine injected; listed as 8990
Procedure: Subsequently, both of these transformed cells were transplanted into subcutaneous tissues of the back on the left and right sides of BALE/c nude mice (5-week-old female). After waiting 12 hours to allow stabilization of the transplanted cells, an equal amount of substrate (coelenterazine) was injected. Subsequently, the developed bioluminescence intensities were compared (FIG. 16A).

[4] = Temporal changes in bioluminescence intensity after substrate introduction (stability); settings: for bioluminescence stability and strength: substrate in modified Matthew's buffer; for bioluminescence stability, short time: 5 seconds; for bioluminescence stability, short time / bioluminescence stability, long time: substrate in PBS buffer; for bioluminescence stability, long time: 10 minutes
Procedure: First, a gene encoding each GLuc variant was cloned into pcDNA 3.1(+), and the same amount of plasmid was introduced into COS-7 cells. The cells were collected 16 hours after the introduction, lysed in cell lysate, and then transferred to a microplate reader. PBS buffer in which coelenterazine is dissolved was set to a substrate injector of the plate reader. At the measurement, after the substrate was automatically injected into each well, changes in the luminescence intensities were measured every 0.05 seconds.
Note that the composition of the modified Matthew's buffer contains the following components: • 100 mM potassium phosphate, 500 mM sodium chloride, 1 mM ethylenediaminetetraacetic acid (EDTA), 0.15 mg/ml porcine gelatin, pH 5.0, 1% Nonyiphenol ethoxylates (Tergitol NP-9) and 1% Antifoam, 25 mM thiourea, and 0.1% DMSO.

[5] = Luminescence spectrum of GLuc variants in COS-7 cell lysates (5-minute lysis, spectrophotometer); assay type: biochemical; settings: for luminance (peak of luminescence spectrum), in words: versus original GLuc; for luminescence intensity higher than GLuc (peak of luminescence spectrum): COS-7 lysate, coelenterazine
Procedure: Subsequently, cell lysates were prepared from the COS-7 cells in each well (5-minute lysis), and a spectrum was measured in the presence of a luciferase-specific substrate (coelenterazine), using a fluorescence spectrophotometer (F-7000, Hitachi), thereby examining the effect of the introduced mutation. FIGS. 4B-1 and 4C show the results.
Additionally, in the preparation of cell samples, the samples are immersed in a lysis solution for 5 minutes. This allows preparation of non-uniform samples of cells whose organelles are not lysed, by a quick process.

[6] = test system: stress hormone receptor (glucocorticoid receptor); assay: Single-molecule-format bioluminescent probe response to stress hormone; assay type: cell-based; settings: with/without stress hormone
Procedure: In order to further examine the advantages of the highly-luminescent variants of the present invention, a single-molecule-format bioluminescent probe was synthesized based on this variant (FIG. 13). […] These probes were inserted into living cells, and the difference in the luminescence intensity was measured under conditions of presence and absence of […].
First, a stress hormone receptor recognizes the stress hormone, and causes an alteration in the structure. As a result, the receptor binds to the adjacent LXXLL motif, which thereby causes recombination of the fragments of the dissected luciferase. At this time, the activity of the stress hormone can be measured using the reversed enzyme activity as the index.
The sensitivity of SimGR3, 8990N, and Mon3N prepared for this experiment to the stress hormone was measured (FIG. 13B).

B1: I114L: MpLuc1 with a mutation introduced into I114; corresponds to I90 of GLuc (protein)
chain: MMEIQVLFALICFALVQANPTENKDDIDIVGVEGKFGTTDLETDLFTIVEDMNVISRDTNLANSDADRGKMPGKKLPLEVLIEMEANARKAGCTRGCLICLSKIKCTAKMKVYLPGRCHDYGGDKKTGQAGIVGAIVDIPEISGFKELGPMEQFIAQVDLCADCTTGCLKGLANVKCSALLKKWLPDRCASFADKIQSEVDNIKGLAGDRKDEL
modifications: MpLuc1 mutant (I114L)
[1]; luminescence spectrum
  luminescence intensity compared to original MpLuc1: higher luminescence intensity
[1]
  luminescence stability compared with MpLuc1: more stable bioluminescences

B2: MLuc4: Y122W/I123L/H128E/Y130W variant of MLuc (protein)
chain: MDIKVVFTLVFSALVQAKSTEFDPNIDIVGLEGKFGITNLETDLFTIWETMEVMIKADIADTDRASNFVATETDANRGKMPGKKLPLAVIMEMEANAFKAGCTRGCLICLSKIKCTAKMKVWLPGRCEDWGGDKKTGQAGIVGAIVDIPEISGFKEMAPMEQFIAQVDRCASCTTGCLKGLANVKCSELLKKWLPDRCASFADKIQKEVHNIKGMAGDR
modifications: MLuc mutant (Y122W/I123L/H128E/Y130W); MLuc4
notes: Y122W/I123L/H128E/Y130W variant of MLuc
[2]
  luminescence stability of MLuc variants: most stable bioluminescence
[2]; listed as Mluc4
  luminescence stability of MLuc variants: more stable bioluminescence

B3: I123L: MLuc with I123L mutation introduced; corresponds to I90 of GLuc (protein)
chain: B2 chain with W122Y, E128H, W130Y
modifications: MLuc mutant (I123L)
[2]; 610 nm long-pass filter
  long-wavelength luminescence intensity: strong bioluminescence in the red wavelength
[2]; luminescence spectrum
  luminescence intensity compared to original MLuc: increased

B4: F89W/I90L: GLuc with isoleucine 90 replaced with leucine and phenylalanine 89 with tryptophan (protein)
chain: MGVKVLFALICIAVAEAKPTENNEDFNIVAVASNFATTDLDADRGKLPGKKLPLEVLKEMEANARKAGCTRGCLICLSHIKCTPKMKKWLPGRCHTYEGDKESAQGGIGEAIVDIPEIPGFKDLEPMEQFIAQVDLCVDCTTGCLKGLANVQCSDLLKKWLPQRCATFASKIQGQVDKIKGAGGDKDEL
modifications: GLuc mutant (F89W/I90L); named 8990
[3]
  bioluminescence intensity higher than GLuc (area ratio): 10.2 times
  bioluminescence intensity (area of spectrum), in words: particularly high bioluminescence intensity
BALE/c nude mice
  bioluminescence at transplantation site versus GLuc: stronger bioluminescence
[4]
  bioluminescence stability and strength: very stable and strong bioluminescence

B5: Y97W: GLuc variant in which tyrosine (Y) at position 97 was mutated to tryptophan (W) (protein)
chain: B4 chain with W89F, L90I, Y97W
modifications: GLuc mutant (Y97W)
[3]
  bioluminescence intensity higher than GLuc (area ratio): 2.1 times
  bioluminescence intensity (area of spectrum), in words: particularly high bioluminescence intensity
[4]
  bioluminescence stability, short time: stable luminescence intensities; also recorded: relatively stable bioluminescences

B6: I118V: GLuc variant, position 118 replaced with valine (protein)
chain: B4 chain with W89F, L90I, D100N, I118V
modifications: GLuc mutant (I118V)
[5]
  luminance (peak of luminescence spectrum), in words: particularly high luminance

B7: H95E: GLuc variant, histidine at position 95 replaced with glutamic acid (protein)
chain: B4 chain with W89F, L90I, H95E
modifications: GLuc mutant (H95E)
[3]
  bioluminescence intensity higher than GLuc (area ratio): 3.0 times
  bioluminescence intensity (area of spectrum), in words: particularly high bioluminescence intensity

B8: I90V: GLuc variant, isoleucine at position 90 mutated to valine (protein)
chain: B4 chain with W89F, L90V, D100N
modifications: GLuc mutant (I90V)
[5]
  luminance (peak of luminescence spectrum), in words: particularly high luminance
[4]
  bioluminescence stability, long time: relatively stable

B9: I108V: GLuc variant, position 108 replaced with valine (protein)
chain: B4 chain with W89F, L90I, D100N, I108V
modifications: GLuc mutant (I108V)
[5]
  luminescence intensity higher than GLuc (peak of luminescence spectrum): 6.7 times
  luminance (peak of luminescence spectrum), in words: particularly high luminance

B10: F89W: GLuc variant, F at position 89 replaced with W (protein)
chain: B4 chain with L90I
modifications: GLuc mutant (F89W)
[5]
  luminescence intensity higher than GLuc (peak of luminescence spectrum): 9 times
  luminance (peak of luminescence spectrum), in words: particularly high luminance
[4]
  bioluminescence stability, short time: relatively unstable luminescence intensity
  bioluminescence stability, long time: relatively unstable
[4]; within 10 minutes after introduction of substrate
  decrease of bioluminescence intensity: about 60%

B11: I90L/I115L: GLuc with isoleucine at positions 90 and 115 replaced with leucine (protein)
chain: B4 chain with W89F, I115L
modifications: GLuc mutant (I90L/I115L)
[3]
  bioluminescence intensity higher than GLuc (area ratio): 4.9 times
  bioluminescence intensity (area of spectrum), in words: particularly high bioluminescence intensity
[4]
  bioluminescence stability and strength: very stable and strong bioluminescence

B12: MpLuc4: Y113W/I114L/H119E/Y121W variant of MpLuc1 (protein)
chain: MMEIQVLFALICFALVQANPTENKDDIDIVGVEGKFGTTDLETDLFTIVEDMNVISRDTNLANSDADRGKMPGKKLPLEVLIEMEANARKAGCTRGCLICLSKIKCTAKMKVWLPGRCEDWGGDKKTGQAGIVGAIVDIPEISGFKELGPMEQFIAQVDLCADCTTGCLKGLANVKCSALLKKWLPDRCASFADKIQSEVDNIKGLAGDR
modifications: MpLuc1 mutant (Y113W/I114L/H119E/Y121W); MpLuc4
notes: Y113W/I114L/H119E/Y121W variant of MpLuc1
[1]; 10 seconds after introduction of substrate
  initial luminescence intensity sustained: 60%
[1]
  luminescence stability compared with MpLuc1: more stable bioluminescences

B13: SimGR3: control probe: original GLuc dissected into two fragments with GR LBD and LXXLL motif inserted (protein)
chain: MKPTENNEDFNIVAVASNFATTDLDADRGKLPGKKLPLEVLKEMEANARKAGCTRGCLICLSHIKCTPKMKKFIPGRCHTYEGDKESAQGGGGGTQLTPTLVSLLEVIEPEVLYAGYDSSVPDSTWRIMTTLNMLGGRQVIAAVKWAKAIPGFRNLHLDDQMTLLQYSWMFLMAFALGWRSYRQSSANLLCFAPDLIINEQRMTLPCMYDQCKHMLYVSSELHRLQVSYEEYLCMKTLLLLSSVPKDGLKSQELFDEIRMTYIKELGKAIVKREGNSSQNWQRFYQLTKLLDSMHEVVENLLNYCFQTFLDKTMSIEFPEMLAEIITNQIPKYSNGNIKKLLFHQKVDGGNGGRNALLRYLLDKDGSGGGGIGEAIVDIPEIPGFKDLEPMEQFIAQVDLCVDCTTGCLKGLANVQCSDLLKKWLPQRCATFASKIQGQVDKIKGAGGDKDEL
modifications: SimGR3; an integrated molecule-format probe carrying an LXXLL motif and GLuc.
notes: control probe: original GLuc dissected into two fragments with GR LBD and LXXLL motif inserted
[6]
  luminescence and stress hormone sensitivity with 610 nm long-pass filter: not significant enough to distinguish between the presence and absence of stress hormone
